Test results from PMC4609301 (Molecular cell, 2015).

Biological target: the molecule itself
Test: phase separation

B1: FUS low complexity N-terminal domain (residues 1-163) (domain or fragment, human, UniProt P35637 1-163, looked up)
chain: MASNDYTQQATQSYGAYPTQPGQGYSQQSSQPYGQQSYSGYSQSTDTSGYGQSSYSSYGQSQNTGYGTQSTPQGYGSTGGYGSSQSSQSSYGQQSSYPGYGQQPAPSSTSGSYGSSSQSSSYGQPQSGSYSQQPSYGGQQQSYGQQQSYNPPQGYGQQNQYNS
**Q.** Does B1 bind?
**A.** binds
